Assay results from patent publication CN113521276A.

Target: 人IFNAR1 on cells (HEK Blue IFNα/β cells, Daudi cells, human whole blood) (human) (UniProt P17181)
Assay: cell-based or functional assay

人IFNAR1 on cells (HEK Blue IFNα/β cells, Daudi cells, human whole blood) (human), sequence (P17181 28-557): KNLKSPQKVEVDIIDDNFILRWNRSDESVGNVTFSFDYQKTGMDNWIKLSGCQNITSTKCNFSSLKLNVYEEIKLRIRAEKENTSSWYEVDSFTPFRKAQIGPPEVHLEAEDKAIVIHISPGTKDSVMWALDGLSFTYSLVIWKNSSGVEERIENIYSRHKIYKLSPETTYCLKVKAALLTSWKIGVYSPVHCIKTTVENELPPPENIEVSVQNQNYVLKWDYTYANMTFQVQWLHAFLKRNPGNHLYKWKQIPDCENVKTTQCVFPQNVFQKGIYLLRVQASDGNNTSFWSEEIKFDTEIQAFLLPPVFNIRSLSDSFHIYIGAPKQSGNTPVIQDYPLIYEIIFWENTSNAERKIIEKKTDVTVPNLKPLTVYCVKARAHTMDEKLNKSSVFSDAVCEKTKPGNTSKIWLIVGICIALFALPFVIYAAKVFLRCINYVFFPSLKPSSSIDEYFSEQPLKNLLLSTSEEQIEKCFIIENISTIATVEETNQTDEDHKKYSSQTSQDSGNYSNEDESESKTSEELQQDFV

抑制干扰素诱导的Daudi细胞增殖活性 (0.8ng/ml IFNα.2b, CellTiter-Glo): 31.7 ng/mL
抑制干扰素诱导的HEK Blue IFNα/β细胞中STAT1/2磷酸化活性 (0.2ng/ml IFNα.2b, QUANTI-Blue OD630nm): 4.43 ng/mL
抑制干扰素诱导的全血释放CXCL10/IP10活性 (8ng/ml IFNα.2b, 40ng/ml TNF-α, sandwich ELISA): 562 ng/mL
Substance: Anifrolumab (antibody)
